Target: mitoribosomal protein uS12m (human (endogenous in HEK293T), UniProt O15235 30-138)
Assay: cryo-EM structure; recombinant mtIF2 (1 µM) preincubated with GDPNP (2.5 mM), added to the mtIF3-bound mtSSU eluate with fMet-tRNA (1 µM) and MT-CO2 mRNA (1 µM), 30 min at room temperature, buffer A (25 mM HEPES-KOH pH 7.5, 5.0 mM Mg(OAc)2, 100 mM KCl, 0.05% β-DDM)
Conditions: both partners purified

B1: recombinant human mtIF2 (amino acids 38-727) (natural protein)
chain: SSAYPVWTAQLCAWPWPTDVLTGAALSQYRLLVTKKEEGPWKSQLSSTKSKKVVEVWIGMTIEELARAMEKNTDYVYEALLNTDIDIDSLEADSHLDEVWIKEVITKAGMKLKWSKLKQDKVRKNKDAVRRPQADPALLTPRSPVVTIMGHVDHGKTTLLDKFRKTQVAAVETGGITQHIGAFLVSLPSGEKITFLDTPGHAAFSAMRARGAQVTDIVVLVVAADDGVMKQTVESIQHAKDAQVPIILAVNKCDKAEADPEKVKKELLAYDVVCEDYGGDVQAVPVSALTGDNLMALAEATVALAEMLELKADPNGPVEGTVIESFTDKGRGLVTTAIIQRGTLRKGSVLVAGKCWAKVRLMFDENGKTIDEAYPSMPVGITGWRDLPSAGEEILEVESEPRAREVVDWRKYEQEQEKGQEDLKIIEEKRKEHKEAHQKAREKYGHLLWKKRSILRFLERKEQIPLKPKEKRERDSNVLSVIIKGDVDGSVEAILNIIDTYDASHECELELVHFGVGDVSANDVNLAETFDGVIYGFNVNAGNVIQQSAAKKGVKIKLHKIIYRLVEDLQEELSSRLPCAVEEHPVGEASILATFSVTEGKKKVPVAGCRVQKGQLEKQKKFKLTRNGHVIWKGSLTSLKHHKDDISIVKTGMDCGLSLDEDNMEFQVGDRIVCYEEKQIQAKTSWDPGF
notes: mitochondrial translation initiation factor 2 (mtIF2), human, mature form, amino acids 38-727, codon-optimised construct in pET-24b; also called mtIF2-GDPNP; source: E. coli Rosetta 2, purified (His-Select Ni2+ resin, Superdex 200)
- binding result: binds

— PMC7287080, “Distinct pre-initiation steps in human mitochondrial translation” (Nature Communications, 2020)
